# Measured values reported in the supplement of paper PMC9112550, “Optimization of the antimicrobial peptide Bac7 by deep mutational scanning” (BMC Biology, 2022).
# System: Escherichia coli TOP10
# Assay: shrunken log2 fold change of peptide-encoding DNA abundance (4.5 h post-induction vs induction); higher = less antimicrobial activity (less host growth inhibition)
# Details: time post-induction: 4.5 h; library: site-saturation at positions 5, 18, 19, 20
# 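Further: peptides expressed intracellularly from a pBAD plasmid library in pooled LB shake-flask culture, induced with 0.3% L-arabinose, DNA abundance read by NGS, three biological replicates, DESeq2 with apeglm shrinkage.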
row,Sequence,shrunken log2 fold change
1,RRIRPRPPRLPRPRPRPIYHPRP,-0.466
2,RRIRGRPPRLPRPRPRPMPHPRP,0.523
3,RRIRGRPPRLPRPRPRPKHDPRP,0.466
4,RRIRRRPPRLPRPRPRPTPTPRP,1.14
5,RRIRYRPPRLPRPRPRPTKIPRP,-0.373
6,RRIRKRPPRLPRPRPRPDCTPRP,1.22
7,RRIRIRPPRLPRPRPRPGPLPRP,-0.00626
8,RRIRSRPPRLPRPRPRPDFDPRP,0.0818
9,RRIRIRPPRLPRPRPRPYPNPRP,-0.072
10,RRIRARPPRLPRPRPRPFKSPRP,-0.549
11,RRIRQRPPRLPRPRPRPHKNPRP,-0.194
12,RRIRKRPPRLPRPRPRPQQAPRP,-0.0621
13,RRIRRRPPRLPRPRPRPAMTPRP,0.314
14,RRIRVRPPRLPRPRPRPWAHPRP,-0.0201
15,RRIRNRPPRLPRPRPRPPEDPRP,0.174
16,RRIRIRPPRLPRPRPRPQAYPRP,0.0364
17,RRIRVRPPRLPRPRPRPGHQPRP,-0.0671
18,RRIRRRPPRLPRPRPRPCIVPRP,-0.183
19,RRIRNRPPRLPRPRPRPIQQPRP,-0.000431
20,RRIRTRPPRLPRPRPRPSGYPRP,-0.256
21,RRIRKRPPRLPRPRPRPSRIPRP,0.156
22,RRIRVRPPRLPRPRPRPGYKPRP,-0.222
23,RRIRDRPPRLPRPRPRPYNMPRP,-0.0758
24,RRIRDRPPRLPRPRPRPRHPPRP,0.0563
25,RRIRRRPPRLPRPRPRPTWPPRP,0.647

row,Sequence,shrunken log2 fold change
1,RRIRCRPPRLPRPRPRPRLHPRP,-0.0571
2,RRIRRRPPRLPRPRPRPKNKPRP,0.294
3,RRIRFRPPRLPRPRPRPAWYPRP,-0.103
4,RRIRSRPPRLPRPRPRPARDPRP,0.407
5,RRIRERPPRLPRPRPRPGQCPRP,0.0236
6,RRIRQRPPRLPRPRPRPLVSPRP,0.00785
7,RRIRARPPRLPRPRPRPNHGPRP,-0.0204
8,RRIRCRPPRLPRPRPRPLVQPRP,0.245
9,RRIRGRPPRLPRPRPRPMARPRP,0.318
10,RRIRTRPPRLPRPRPRPGMAPRP,-0.0805
11,RRIRSRPPRLPRPRPRPDPCPRP,0.0809
12,RRIRHRPPRLPRPRPRPWWWPRP,0.0221
13,RRIRKRPPRLPRPRPRPNIDPRP,-0.0981
14,RRIRSRPPRLPRPRPRPWLNPRP,-0.119
15,RRIRVRPPRLPRPRPRPPVEPRP,0.424
16,RRIRHRPPRLPRPRPRPQYPPRP,-0.161
17,RRIRSRPPRLPRPRPRPVHCPRP,-0.258
18,RRIRQRPPRLPRPRPRPYIAPRP,0.0259
19,RRIRDRPPRLPRPRPRPGAFPRP,0.357
20,RRIRKRPPRLPRPRPRPNGKPRP,-0.114
21,RRIRHRPPRLPRPRPRPQGFPRP,-0.00136
22,RRIRIRPPRLPRPRPRPHCVPRP,-0.533
23,RRIRKRPPRLPRPRPRPIPKPRP,0.499
24,RRIRGRPPRLPRPRPRPCHFPRP,0.0576
25,RRIRVRPPRLPRPRPRPQSAPRP,-0.054

row,Sequence,shrunken log2 fold change
1,RRIRCRPPRLPRPRPRPTHFPRP,0.526
2,RRIRERPPRLPRPRPRPLPIPRP,-0.0301
3,RRIRKRPPRLPRPRPRPDSPPRP,-0.0585
4,RRIRPRPPRLPRPRPRPTKCPRP,-0.0849
5,RRIRKRPPRLPRPRPRPCSNPRP,-0.0227
6,RRIRDRPPRLPRPRPRPMWAPRP,-0.0235
7,RRIRNRPPRLPRPRPRPPSFPRP,-0.0746
8,RRIRWRPPRLPRPRPRPERHPRP,0.277
9,RRIRDRPPRLPRPRPRPDIEPRP,0.105
10,RRIRPRPPRLPRPRPRPFRKPRP,-0.0819
11,RRIRLRPPRLPRPRPRPEDAPRP,0.368
12,RRIRTRPPRLPRPRPRPVLTPRP,1.21
13,RRIRMRPPRLPRPRPRPWIGPRP,-0.0941
14,RRIRNRPPRLPRPRPRPHMPPRP,-0.0765
15,RRIRDRPPRLPRPRPRPLFVPRP,-0.168
16,RRIRWRPPRLPRPRPRPWDRPRP,0.215
17,RRIRIRPPRLPRPRPRPSPPPRP,-0.214
18,RRIRWRPPRLPRPRPRPTCTPRP,0.441
19,RRIRRRPPRLPRPRPRPMMVPRP,-0.00292
20,RRIRQRPPRLPRPRPRPSTTPRP,-0.572
21,RRIRHRPPRLPRPRPRPYWQPRP,-0.0678
22,RRIRARPPRLPRPRPRPVWTPRP,0.527
23,RRIRRRPPRLPRPRPRPMMRPRP,0.73
24,RRIRYRPPRLPRPRPRPNELPRP,-0.717
25,RRIRHRPPRLPRPRPRPEIGPRP,0.103

row,Sequence,shrunken log2 fold change
1,RRIRKRPPRLPRPRPRPAKVPRP,0.0797
2,RRIRSRPPRLPRPRPRPHGFPRP,-0.0309
3,RRIRGRPPRLPRPRPRPIWHPRP,0.213
4,RRIRTRPPRLPRPRPRPWYWPRP,-0.0177
5,RRIRCRPPRLPRPRPRPTRNPRP,0.444
6,RRIRVRPPRLPRPRPRPLGYPRP,-0.0838
7,RRIRCRPPRLPRPRPRPNLIPRP,-0.872
8,RRIRIRPPRLPRPRPRPMCTPRP,-0.0274
9,RRIRCRPPRLPRPRPRPRDAPRP,0.56
10,RRIRNRPPRLPRPRPRPNKHPRP,-0.528
11,RRIRIRPPRLPRPRPRPHFNPRP,-0.966
12,RRIRDRPPRLPRPRPRPYMDPRP,-0.393
13,RRIRWRPPRLPRPRPRPLCKPRP,0.116
14,RRIRCRPPRLPRPRPRPRTMPRP,-0.0155
15,RRIRDRPPRLPRPRPRPENIPRP,-0.172
16,RRIRYRPPRLPRPRPRPPFGPRP,-0.386
17,RRIRWRPPRLPRPRPRPAAKPRP,0.482
18,RRIRCRPPRLPRPRPRPDKPPRP,0.0422
19,RRIRFRPPRLPRPRPRPYMNPRP,-0.818
20,RRIRLRPPRLPRPRPRPAEDPRP,-0.00769
21,RRIRARPPRLPRPRPRPYKQPRP,-0.295
22,RRIRSRPPRLPRPRPRPFVIPRP,-0.206
23,RRIRTRPPRLPRPRPRPPGAPRP,0.995
24,RRIRRRPPRLPRPRPRPDKTPRP,0.119
25,RRIRVRPPRLPRPRPRPANYPRP,-0.241

row,Sequence,shrunken log2 fold change
1,RRIRLRPPRLPRPRPRPWCLPRP,-0.317
2,RRIRVRPPRLPRPRPRPLVGPRP,0.726
3,RRIRFRPPRLPRPRPRPPSVPRP,0.08
4,RRIRTRPPRLPRPRPRPSISPRP,-0.362
5,RRIRHRPPRLPRPRPRPEQTPRP,-0.01
6,RRIRYRPPRLPRPRPRPSEMPRP,-0.765
7,RRIRNRPPRLPRPRPRPTTMPRP,-0.0975
8,RRIRPRPPRLPRPRPRPQKEPRP,0.0431
9,RRIRVRPPRLPRPRPRPTCMPRP,-0.125
10,RRIRMRPPRLPRPRPRPKMHPRP,0.42
11,RRIRTRPPRLPRPRPRPTMEPRP,-0.489
12,RRIRFRPPRLPRPRPRPGECPRP,-0.228
13,RRIRIRPPRLPRPRPRPIFQPRP,-0.378
14,RRIRIRPPRLPRPRPRPSKRPRP,-0.622
15,RRIRRRPPRLPRPRPRPGPYPRP,0.18
16,RRIRRRPPRLPRPRPRPWATPRP,0.0893
17,RRIRCRPPRLPRPRPRPGAIPRP,-0.0334
18,RRIRFRPPRLPRPRPRPGGRPRP,0.323
19,RRIRWRPPRLPRPRPRPYDGPRP,-0.337
20,RRIRLRPPRLPRPRPRPDIIPRP,-0.173
21,RRIRTRPPRLPRPRPRPKFWPRP,0.318
22,RRIRIRPPRLPRPRPRPLTYPRP,-0.495
23,RRIRYRPPRLPRPRPRPLNQPRP,-0.343
24,RRIRARPPRLPRPRPRPLVWPRP,0.774
25,RRIRVRPPRLPRPRPRPYCRPRP,-0.213

row,Sequence,shrunken log2 fold change
1,RRIRDRPPRLPRPRPRPMTYPRP,-0.109
2,RRIRYRPPRLPRPRPRPKDFPRP,0.00489
3,RRIRPRPPRLPRPRPRPLDPPRP,0.201
4,RRIRIRPPRLPRPRPRPSTTPRP,-0.189
5,RRIRERPPRLPRPRPRPMGHPRP,-0.298
6,RRIRWRPPRLPRPRPRPGQPPRP,0.326
7,RRIRQRPPRLPRPRPRPVGIPRP,-0.0511
8,RRIRDRPPRLPRPRPRPDMYPRP,0.214
9,RRIRLRPPRLPRPRPRPWPWPRP,0.0352
10,RRIRWRPPRLPRPRPRPLTTPRP,0.235
11,RRIRWRPPRLPRPRPRPRTTPRP,0.755
12,RRIRHRPPRLPRPRPRPLLYPRP,-0.528
13,RRIRYRPPRLPRPRPRPYICPRP,-0.234
14,RRIRIRPPRLPRPRPRPQYGPRP,0.0914
15,RRIRARPPRLPRPRPRPVRCPRP,0.966
16,RRIRNRPPRLPRPRPRPYWWPRP,0.0224
17,RRIRKRPPRLPRPRPRPDFPPRP,0.416
18,RRIRHRPPRLPRPRPRPCGSPRP,-0.153
19,RRIRERPPRLPRPRPRPQRCPRP,-0.0721
20,RRIRWRPPRLPRPRPRPIPYPRP,-0.031
21,RRIRARPPRLPRPRPRPARMPRP,0.724
22,RRIRKRPPRLPRPRPRPCTEPRP,0.0485
23,RRIRTRPPRLPRPRPRPWFEPRP,0.647
24,RRIRIRPPRLPRPRPRPAMAPRP,-0.237
25,RRIRRRPPRLPRPRPRPNSEPRP,0.381
